Reference: publication PMC11073785, “YeeD is an essential partner for YeeE-mediated thiosulfate uptake in bacteria and regulates thiosulfate ion decomposition” (PLOS Biology, 2024)

B1: Spirochaeta thermophila YeeE [Spirochaeta thermophila] / Spirochaeta thermophila YeeD (WT), His6-tagged [Spirochaeta thermophila] (parent complex)
chain 1: MIWTGLLVGFLFGIVLQRGRICFNSAFRDVLLFKDNYLFKLAVFTLALEMILFVLLSQVGLMQMNPKPLNLVGNIIGGFVFGLGMVLAGGCASGVTYRVGEGLTTAWFAALFYGLGAYATKSGAFSWWLSWVGQFKSPLSVEESAYYVKGAGPTISSVLGLNPWIPALVIAALFILWAFGTKTTSRETKFNWKIASVCLALVAGLGFITSTLSGRKYGLGITGGWINLFQGFLTNSPLNWEGLEIVGIILGAGVAAAVAGEFKLRMPKNPVTYLQVGIGGLLMGIGAVTAGGCNIGHFLTGVPQLALSSWLASIFFILGNWTMAWILF
chain 2: MANYQVSKEIDVRGEVCPIPDVEAKRAVQSANDGEIILVRIDYPLSKERIPETVKKLGSEVLEIEEAAPGEWNIYIKVKK

Variants of: B1
Test: BLI; Octet buffer (20 mM Tris-HCl (pH 8.0), 300 mM NaCl, 0.1% (w/v) DDM, 1 mM β-ME); response at 120 s; parent: 1.8; read off a plot

Row | Variant | response [nm]
1 | chain 2 MANYQVSKEIDVRGEVAPIPDVEAKRAVQSANDGEIILVRIDYPLSKERIPETVKKLGSEVLEIEEAAPGEWNIYIKVKK [chain 2 C17A] | ~0.14
2 | chain 2 MANYQVSKEIDVRGEVCPIPDVEAKRAVQSANDGEIILVRIAYPLSKERIPETVKKLGSEVLEIEEAAPGEWNIYIKVKK [chain 2 D42A] | ~0.04
